Results: US20060257938A1, “Method of screening for drugs that block ligand binding to a lipid binding protein” (priority 2005, published 2006)
Substitutions are numbered along the chain they refer to. Numbers in names are those of the source.

B1: L2P4C5: FABP probe, substitutions M18I G31Y vs SEQ ID NO: 2 (protein, listed as Rattus norvegicus)
chain: AFDGTWKVDRNENYEKFIEKMGINVVKRKLYAHDNLKLTITQEGNKFTVKESSNFRNIDVVFELGVDFAYSLADGTELTGTWTMEGNKLVGKFKRVDNGKELIAVREISGNELIQTYTYEGVEAKRIFKKE
modifications: PEPTIDE (1)...(131) wild-type rat intestinal fatty acid binding protein
B2: L2P1E6: FABP probe, substitutions M18L A73L vs SEQ ID NO: 2 (protein, listed as Rattus norvegicus)
chain: B1 chain with I18L, Y31G, A73L
modifications: PEPTIDE (1)...(131) wild-type rat intestinal fatty acid binding protein
B3: L2P8F11: FABP probe, substitution A73I vs SEQ ID NO: 2 (protein, listed as Rattus norvegicus)
chain: B1 chain with I18M, Y31G, A73I
modifications: PEPTIDE (1)...(131) wild-type rat intestinal fatty acid binding protein
B4: L2P12G9: FABP probe, substitutions M18L A73V vs SEQ ID NO: 2 (protein, listed as Rattus norvegicus)
chain: B1 chain with I18L, Y31G, A73V
modifications: PEPTIDE (1)...(131) wild-type rat intestinal fatty acid binding protein
B5: L2P9E12: FABP probe, substitutions M18L F55L A73I vs SEQ ID NO: 2 (protein, listed as Rattus norvegicus)
chain: B1 chain with I18L, Y31G, F55L, A73I
modifications: PEPTIDE (1)...(131) wild-type rat intestinal fatty acid binding protein
B6: L2P22H10: FABP probe, substitutions M18I F55G A73M vs SEQ ID NO: 2 (protein, listed as Rattus norvegicus)
chain: B1 chain with Y31G, F55G, A73M
modifications: PEPTIDE (1)...(131) wild-type rat intestinal fatty acid binding protein
B7: 72T 73Q 74S (protein, listed as Rattus norvegicus)
chain: B1 chain with I18M, Y31G, L72T, A73Q, D74S
modifications: PEPTIDE (1)...(131) wild-type rat intestinal fatty acid binding protein
B8: 72G 74F (protein, listed as Rattus norvegicus)
chain: B1 chain with I18M, Y31G, L72G, D74F
modifications: PEPTIDE (1)...(131) wild-type rat intestinal fatty acid binding protein
B9: 73N 72A 74F (protein, listed as Rattus norvegicus)
chain: B1 chain with I18M, Y31G, L72A, A73N, D74F
modifications: PEPTIDE (1)...(131) wild-type rat intestinal fatty acid binding protein
B10: 18I 31L 73L 72A (protein, listed as Rattus norvegicus)
chain: B1 chain with Y31L, L72A, A73L
modifications: PEPTIDE (1)...(131) wild-type rat intestinal fatty acid binding protein
B11: 14L 18S 31L 73V 117A 72A (protein, listed as Rattus norvegicus)
chain: B1 chain with Y14L, I18S, Y31L, L72A, A73V, Y117A
modifications: PEPTIDE (1)...(131) wild-type rat intestinal fatty acid binding protein
B12: 38Q 106W 117A 72A (protein, listed as Rattus norvegicus)
chain: B1 chain with I18M, Y31G, L38Q, L72A, R106W, Y117A
modifications: PEPTIDE (1)...(131) wild-type rat intestinal fatty acid binding protein
B13: 14V 18L 73V 117A 72A (protein, listed as Rattus norvegicus)
chain: B1 chain with Y14V, I18L, Y31G, L72A, A73V, Y117A
modifications: PEPTIDE (1)...(131) wild-type rat intestinal fatty acid binding protein
B14: 21W 78I 72A (protein, listed as Rattus norvegicus)
chain: B1 chain with I18M, M21W, Y31G, L72A, L78I
modifications: PEPTIDE (1)...(131) wild-type rat intestinal fatty acid binding protein
B15: 21W 78F 72A (protein, listed as Rattus norvegicus)
chain: B1 chain with I18M, M21W, Y31G, L72A, L78F
modifications: PEPTIDE (1)...(131) wild-type rat intestinal fatty acid binding protein
B16: 18L 55L 73I 72A (protein, listed as Rattus norvegicus)
chain: B1 chain with I18L, Y31G, F55L, L72A, A73I
modifications: PEPTIDE (1)...(131) wild-type rat intestinal fatty acid binding protein
B17: 18L 73L 72A (protein, listed as Rattus norvegicus)
chain: B1 chain with I18L, Y31G, L72A, A73L
modifications: PEPTIDE (1)...(131) wild-type rat intestinal fatty acid binding protein
B18: 73I 72A (protein, listed as Rattus norvegicus)
chain: B1 chain with I18M, Y31G, L72A, A73I
modifications: PEPTIDE (1)...(131) wild-type rat intestinal fatty acid binding protein
B19: 21W 78A 102V 72A (protein, listed as Rattus norvegicus)
chain: B1 chain with I18M, M21W, Y31G, L72A, L78A, L102V
modifications: PEPTIDE (1)...(131) wild-type rat intestinal fatty acid binding protein

Experiment: Probe fluorescence ratio response to arachidonic acid relative to ADIFAB2
Assay type: binding
Details: Table 5; Arachidonic acid
Method in brief: (§1)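 Each fatty acid's response was expressed relative to ADIFAB2, the rI-FABP-L72A probe, as ΔR/ΔRreference. ΔR is the change in the background-corrected two-wavelength intensity ratio R=Fλ1/Fλ2 from its analyte-free baseline R0. Emission was read near about 420-480 nm for unbound and about 495-580 nm for FFA-bound probe.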

Row | Molecule | ΔR/DRAΔ2 AA
1 | B1 | 2.2
2 | B2 | 0.4
3 | B3 | 0.4
4 | B4 | 0.5
5 | B5 | 0.6
6 | B6 | 0.9

Same assay, conditions: arachidonic acid; response relative to ADIFAB2

Row | Molecule | DR/DR AA
7 | B7 | 2.166
8 | B8 | 1.669
9 | B9 | 0.870
10 | B10 | 0.626
11 | B11 | 0.951
12 | B12 | 1.078
13 | B13 | 0.926
14 | B14 | 6.322
15 | B15 | 4.264
16 | B16 | 0.443
17 | B17 | 0.441
18 | B18 | 0.408
19 | B19 | 4.923

Experiment: Probe fluorescence ratio response to linolenic acid relative to ADIFAB2
Assay type: binding
Details: Table 5
Method in brief: as §1

Row | Molecule | ΔR/DRAΔ2 LNA
20 | B1 | 2.8
21 | B2 | 0.1
22 | B3 | 0.1
23 | B4 | 0.0
24 | B5 | 0.9
25 | B6 | 1.3

Same assay, conditions: response relative to ADIFAB2

Row | Molecule | DR/DR LNA
26 | B7 | 2.419
27 | B8 | 1.970
28 | B9 | 1.299
29 | B10 | 0.857
30 | B11 | 0.673
31 | B12 | 0.795
32 | B13 | 0.624
33 | B14 | 4.024
34 | B15 | 1.694
35 | B16 | −0.044
36 | B17 | 0.090
37 | B18 | 0.099
38 | B19 | 1.628

Experiment: Probe fluorescence ratio response to linoleic acid relative to ADIFAB2
Assay type: binding
Details: Table 5
Method in brief: as §1

Row | Molecule | ΔR/DRAΔ2 LA
39 | B1 | 2.8
40 | B2 | 0.1
41 | B3 | 0.0
42 | B4 | −0.1
43 | B5 | 0.7
44 | B6 | 1.1

Same assay, conditions: response relative to ADIFAB2

Row | Molecule | DR/DR LA
45 | B7 | 2.713
46 | B8 | 2.116
47 | B9 | 0.976
48 | B10 | 0.682
49 | B11 | 0.534
50 | B12 | 0.860
51 | B13 | 0.557
52 | B14 | 4.381
53 | B15 | 1.597
54 | B16 | −0.129
55 | B17 | 0.019
56 | B18 | 0.039
57 | B19 | 2.749

Experiment: Probe fluorescence ratio response to oleic acid relative to ADIFAB2
Assay type: binding
Details: Table 5
Method in brief: as §1

Row | Molecule | ΔR/DRAΔ2 OA
58 | B1 | 2.1
59 | B2 | 0.1
60 | B3 | 0.0
61 | B4 | 0.0
62 | B5 | 0.6
63 | B6 | 0.6

Same assay, conditions: response relative to ADIFAB2

Row | Molecule | DR/DR OA
64 | B7 | 2.676
65 | B8 | 1.490
66 | B9 | 0.775
67 | B10 | 0.549
68 | B11 | 0.020
69 | B12 | 0.899
70 | B13 | 0.307
71 | B14 | 4.703
72 | B15 | 1.843
73 | B16 | 0.021
74 | B17 | 0.021
75 | B18 | 0.045
76 | B19 | 3.261

Experiment: Probe fluorescence ratio response to palmitic acid relative to ADIFAB2
Assay type: binding
Details: Table 5
Method in brief: as §1

Row | Molecule | ΔR/DRAΔ2 PA
77 | B1 | 1.8
78 | B2 | 0.0
79 | B3 | 0.0
80 | B4 | 0.0
81 | B5 | 1.1
82 | B6 | 1.1

Same assay, conditions: response relative to ADIFAB2

Row | Molecule | DR/DR PA
83 | B7 | 2.646
84 | B8 | 2.304
85 | B9 | 1.468
86 | B10 | 1.075
87 | B11 | 0.028
88 | B12 | 0.444
89 | B13 | 0.249
90 | B14 | 2.759
91 | B15 | 0.851
92 | B16 | 0.007
93 | B17 | −0.004
94 | B18 | 0.015
95 | B19 | 1.721

Experiment: Probe fluorescence ratio response to palmitoleic acid relative to ADIFAB2
Assay type: binding
Details: Table 5
Method in brief: as §1

Row | Molecule | ΔR/DRAΔ2 POA
96 | B1 | 2.6
97 | B2 | 0.1
98 | B3 | 0.1
99 | B4 | 0.0
100 | B5 | 0.8
101 | B6 | 1.2

Same assay, conditions: response relative to ADIFAB2

Row | Molecule | DR/DR POA
102 | B7 | 3.110
103 | B8 | 2.996
104 | B9 | 2.256
105 | B10 | 0.781
106 | B11 | −0.003
107 | B12 | 0.970
108 | B13 | 0.597
109 | B14 | 3.284
110 | B15 | 1.217
111 | B16 | −0.030
112 | B17 | 0.092
113 | B18 | 0.117
114 | B19 | 1.585

Experiment: Probe fluorescence ratio response to stearic acid relative to ADIFAB2
Assay type: binding
Details: Table 5
Method in brief: as §1

Row | Molecule | ΔR/DRAΔ2 SA
115 | B1 | 1.0
116 | B2 | 0.2
117 | B3 | 0.3
118 | B4 | 0.4
119 | B5 | 0.4
120 | B6 | 0.4

Same assay, conditions: response relative to ADIFAB2

Row | Molecule | DR/DR SA
121 | B7 | 1.792
122 | B8 | 0.669
123 | B9 | 0.271
124 | B10 | 0.390
125 | B11 | 0.007
126 | B12 | 0.281
127 | B13 | 0.105
128 | B14 | 3.396
129 | B15 | 1.161
130 | B16 | 0.423
131 | B17 | 0.254
132 | B18 | 0.242
133 | B19 | 3.092
